Measured values reported in publication PMC11137178, “Protein disulfide isomerase-9 interacts with the lumenal region of the transmembrane endoplasmic reticulum stress sensor kinase, IRE1, to modulate the unfolded protein response in Arabidopsis” (Frontiers in Plant Science, 2024).
Numbering of substitutions follows the chain as printed. In names and notes the source's numbering stands.

T1: PDI9:mCherry-KDEL (Arabidopsis thaliana, UniProt O48773 25-440)
T1 construct: Protein disulfide isomerase-9 (PDI9, PDI-M subfamily), Arabidopsis thaliana, At2g32920; made from the earlier construct PDI9:GFP-KDEL (Yuen et al., 2013) by exchanging GFP for mCherry; also called PDI9:Cherry-KDEL; PDI9:RFP; source: Arabidopsis leaf mesophyll protoplasts, transiently transfected, in living cells; not shown: mCherry-KDEL, C-terminal, kept
T1 sequence (looked up): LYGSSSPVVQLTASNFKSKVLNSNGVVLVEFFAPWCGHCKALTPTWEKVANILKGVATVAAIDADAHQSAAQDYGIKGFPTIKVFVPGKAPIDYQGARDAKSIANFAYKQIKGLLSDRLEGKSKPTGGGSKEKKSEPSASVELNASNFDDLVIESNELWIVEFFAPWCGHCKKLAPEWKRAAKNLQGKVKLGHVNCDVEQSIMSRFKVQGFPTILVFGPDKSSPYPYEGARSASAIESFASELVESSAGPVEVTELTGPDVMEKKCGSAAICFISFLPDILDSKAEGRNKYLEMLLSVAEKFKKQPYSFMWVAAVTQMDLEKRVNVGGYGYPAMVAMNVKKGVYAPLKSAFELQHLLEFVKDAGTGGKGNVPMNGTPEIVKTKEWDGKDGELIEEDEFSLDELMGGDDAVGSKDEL

T2: PDI9(C63A):mCherry-KDEL (Arabidopsis thaliana, UniProt O48773 25-440, C63A)
T2 construct: PDI9, Arabidopsis thaliana, At2g32920; as m1 with the second cysteine of the first thioredoxin active site (CGHC to CGHA) changed; Parent construct m1; source: Arabidopsis leaf mesophyll protoplasts, transiently transfected, in living cells; not shown: mCherry-KDEL, C-terminal, kept
T2 sequence (looked up): T1 sequence (looked up) with C39A

B1: GFP : IRE1A (receptor, Arabidopsis thaliana, UniProt Q9C5S2 31-841, looked up)
chain: DDVTYPIVPSSPGRRSILQIRREPPTEPNTKLVVDRDGKVFLKQQPKETPYWSFSTGSPMHSLYQAPANNNTENATEITRPHIIVEYLNNSKAATTVDGYHNWTVQEFFRQKPLVTDDGVTLGSETTSAYLVDGRSGRLIHVYKSTGDTKITNALVKPASTEDFVNEPLLIRRTDSKLEHFSKTTGKLVWNLTVSHFRAALLCDPVFNSGYDLGPKLQTGIYMPLLCGSQIDVRGPEIVIRVLHDQPMNVKMLPSPSLNHFESENSIMPFGKARESRKLQEQHKQKYTYLFGQWSPVKLLAPLVLLGVVVSVFIKKFSSRGSDVSLKAGPSKKKKNRKSAKDTNRQSVPRGQDQFELIEGGQMLLGFNNFQSGATDGRKIGKLFLSSKEIAKGSNGTVVFEGIYEGRPVAVKRLVRSHHEVAFKEIQNLIASDQHTNIIRWYGVEYDQDFVYLSLERCTCSLDDLIKSYLEFSMTKVLENNDSTEGVAAYKIQLDSLEGVIKGNNFWKVGGHPSPLMLKLMRDIVCGIVHLHELGIVHRDLKPQNVLISKDMTLSAKLSDMGISKRMSRDMSSLGHLATGSGSSGWQAPEQLLQGRQTRAVDMFSLGCVIFYTITGCKHPFGDDLERDVNIVKNKVDLFLVEHVPEASDLISRLLNPDPDLRPSATEVLLHPMFWNSEMRLSFLRDASDRVELENREADSEILKAMESTAPVAIGGKWDEKLEPVFITNIGRYRRYKYDSIRDLLRVIRNKLNHHRELPPEIQELVGTVPEGFDEYFAVRFPKLLIEVYRVISLHCREEEVFRKYFKCDII
notes: IRE1A (inositol-requiring enzyme-1 kinase), Arabidopsis thaliana, At2g17520; mature polypeptide region amplified from Col-0 genomic DNA and placed after the IRE1A signal peptide and GFP; Construct order: IRE1A signal peptide, GFP, mature IRE1A; source: Arabidopsis leaf mesophyll protoplasts, transiently transfected; in living cells (FLIM-FRET) and in protoplast extract (co-I.P.); not shown: GFP …
B2: GFP : IRE1B (receptor, Arabidopsis thaliana, UniProt Q93VJ2 22-881, looked up)
chain: FKGSEISKFYDKSISNQISQSDRESGYVLVSTVDGSISLVDMSSQKLDWTFHTNEPIYSSYQAPHYHYTTDEERSSVLGDDFYMDCDKDWRLYNSSVRKGKRVNEIVDASEFIGTLPYTSTDRIVLGKKDTSVFLLDWKTGKLVKRYRMDELYSNTVVENDKEKAIVLSKEAPLLFGSGFKKSEDFPELVYIERKDFKIQCISKFGDVLWSVSYAKMEAKLQNHESVQFISGLSSSVGKNQFPLSYTTSVPMVQLRNVKYETLFPRLGFLDEALYLPFQDRKPNQLAIGDGNQLTLPGNKEAEEVLSLPLPETVISQITDIIDGSTKQAGFASKFSGLIVLIFGFCVTMLSVCGLFFYRLRQSIRIKEPYVSEVPIATPKKKKSKKNGTTKAVHKKENGFISGGNKDPSHEENEKRLLTAFPGLNNSSAEGYRVGKLFVSNKEIAKGSNGTVVLEGSYEGRLVAVKRLVQSHHDVAQKEILNLMASDKHSNIVRWYGVDQDEHFIYISLELCACSLNDLIYASSALLESPMASSSIHSIQINPIFENGKGVELWKENGHPSPVLLKLMRDIVAGLVHLHDIGIVHRDLKPQNVLIVKNSSLCAKLSDMGISKRLPADTSALTRNSTGLGSGSSGWQAPEQLRNERQTRAVDLFSLGCVLFFCMTGGKHPYGDNYERDVNVLNDQKDLFLIESLPEAVHLLTGLLNPDPNLRPRAQDVMHHPLFWNSDMRLSFLRDASDRVELENREEGSQLLAALESTAAVTLNGRWDEKLDSIFLDNIGRYRRYKFDSIRDLLRVIRNKLNHYRELPKELQELLGSVPEGFERYFSSRFPKLLIQVYTVLFDYCNNEEFFFKYSKTTVF
notes: IRE1B, Arabidopsis thaliana, At5g24360; mature polypeptide region amplified from Col-0 genomic DNA and placed after the IRE1B signal peptide and GFP; Construct order: IRE1B signal peptide, GFP, mature IRE1B; source: Arabidopsis leaf mesophyll protoplasts, transiently transfected; in living cells (FLIM-FRET) and in protoplast extract (co-I.P.); not shown: GFP (eGFP S65T), N-terminal, kept

Assays:
PDI9:mCherry-KDEL = target: T1, PDI9:mCherry-KDEL; test: FRET or BRET; FLIM-FRET in living Arabidopsis leaf mesophyll protoplasts coexpressing the GFP donor (on IRE1) and the mCherry acceptor (on PDI9), 16-18 h after transfection; GFP lifetime per region of interest; E = (1 - ti/t0) x 100% against single-transfected GFP:IRE1; conditions: partners not purified
PDI9(C63A):mCherry-KDEL = target: T2, PDI9(C63A):mCherry-KDEL; test: as above; conditions: partners not purified

| GFP donor fluorescence lifetime (PDI9:mCherry-KDEL) [ns] | GFP donor fluorescence lifetime (PDI9(C63A):mCherry-KDEL) [ns] | Binder |
| --- | --- | --- |
| 2.29 | 2.42 | B1 |
| 2.31 | 2.42 | B2 |
